The values that follow come from US6359194 (Takeda / Millennium, dated 2002).

Sequences and labels used below:
B1: tchvR4A (GAL4 activation domain fusion to amino acids 25-235 of rchd534) (other, not shown: large carriers)
chain: DEYKPLDLSDSTLSYTETEATNSLITAPGEFSDASMSPDATKPSHWCSVAYWEHRTRVGRLYAVYDQAVSIFYDLPQGSGFCLGQLNLEQRSESVRRTRSKIGFGILLSKEPDGVWAYNRGEHPIFVNSPTLDAPGGRALVVRKVPPGYSIKVFDFERSGLQHAPEPDAADGPYDPNSVRISFAKGWGPCYSRQFITSCPCWLEILLNNPR
notes: Library clone from the human breast two-hybrid library; also called tchvR4A fish protein
B2: tchv03A (GAL4 activation domain fusion to amino acids 17-235 of rchd534) (other, not shown: large carriers)
chain: PYSRLSPRDEYKPLDLSDSTLSYTETEATNSLITAPGEFSDASMSPDATKPSHWCSVAYWEHRTRVGRLYAVYDQAVSIFYDLPQGSGFCLGQLNLEQRSESVRRTRSKIGFGILLSKEPDGVWAYNRGEHPIFVNSPTLDAPGGRALVVRKVPPGYSIKVFDFERSGLQHAPEPDAADGPYDPNSVRISFAKGWGPCYSRQFITSCPCWLEILLNNPR
notes: Library clone from the human breast two-hybrid library; also called tchv03A fish protein
B3: GAL4 DNA-binding domain-fchd540 fusion (other, UniProt P04386 1-147, looked up)
chain: MKLLSSIEQACDICRLKKLKCSKEKPKCAKCLKNNWECRYSPKTKRSPLTRAHLTEVESRLERLEQLFLLIFPREDLDMILKMDSLQDIKALLTGLFVQDNVNKDAVTDRLASVETDMPLTLRQHRISATSSSEESSNKGQRQLTVSMFRTKRSALVRRLWRSRAPGGEDEEEGAGGGGGGGELRGEGATDSRAHGAGGGGPGRAGCCLGKAVRGAKGHHHPHPPAAGAGAAGGAEADLKALTHSVLKKLKERQLELLLQAVESRGGTRTACLLLPGRLDCRLGPGAPAGAQPAQPPSSYSLPLLLCKVFRWPDLRHSSEVKRLCCCESYGKINPELVCCNPHHLSRLCELESPPPPYSRYPMDFLKPTADCPDAVPSSAETGGTNYLAPGGLSDSQLLLEPGDRSHWCVVAYWEEKTRVGRLYCVQEPSLDIFYDLPQGNGFCLGQLNSDNKSQLVQKVRSKIGCGIQLTREVDGVWVYNRSSYPIFIKSATLDNPDSRTLLVHKVFPGFSIKAFDYEKAYSLQRPNDHEFMQQPWTGFTVQISFVKGWGQCYTRQFISSCPCWLEVIFNSR
notes: Yeast two-hybrid bait; also called fchd540 bait protein; pGBT9-fchd540
B4: GAL4 DNA-binding domain fusion to Drosophila MAD (other, UniProt P04386 1-147, looked up)
chain: MKLLSSIEQACDICRLKKLKCSKEKPKCAKCLKNNWECRYSPKTKRSPLTRAHLTEVESRLERLEQLFLLIFPREDLDMILKMDSLQDIKALLTGLFVQDNVNKDAVTDRLASVETDMPLTLRQHRISATSSSEESSNKGQRQLTVSMDTDDVESNTSSAMSTLGSLFSFTSPAVKKLLGWKQGDEEEKWAEKAVDSLVKKLKKRKGAIEELERALSCPGQPSKCVTIPRSLDGRLQVSHRKGLPHVIYCRVWRWPDLQSHHELKPLELCQYPFSAKQKEVCINPYHYKRVESPVLPPVLVPRHSEFAPGHSMLQFNHVAEPSMPHNVSYSNSGFNSHSLSTSNTSVGSPSSVNSNPNSPYDSLAGTPPPAYSPSEDGNSNNPNDGGQLLDAQMGDVAQVSYSEPAFWASIAYYELNCRVGEVFHCNNNSVIVDGFTNPSNNSDRCCLGQLSNVNRNSTIENTRRHIGKGVHLYYVTGEVYAECLSDSAIFVQSRNCNYHHGFHPSTVCKIPPGCSLKIFNNQEFAQLLSQSVNNGFEAVYELTKMCTIRMSFVKGWGAEYHRQDVTSTPCWIEIHLHGPLQWLDKVLTQMGSPHNAISSVS
notes: Yeast two-hybrid bait; also called Dros; MAD; MAD bait protein
B5: GAL4 DNA-binding domain fusion to rchd534 (other, UniProt P04386 1-147, looked up)
chain: MKLLSSIEQACDICRLKKLKCSKEKPKCAKCLKNNWECRYSPKTKRSPLTRAHLTEVESRLERLEQLFLLIFPREDLDMILKMDSLQDIKALLTGLFVQDNVNKDAVTDRLASVETDMPLTLRQHRISATSSSEESSNKGQRQLTVSMSRMGKPIETQKSPPPPYSRLSPRDEYKPLDLSDSTLSYTETEATNSLITAPGEFSDASMSPDATKPSHWCSVAYWEHRTRVGRLYAVYDQAVSIFYDLPQGSGFCLGQLNLEQRSESVRRTRSKIGFGILLSKEPDGVWAYNRGEHPIFVNSPTLDAPGGRALVVRKVPPGYSIKVFDFERSGLQHAPEPDAADGPYDPNSVRISFAKGWGPCYSRQFITSCPCWLEILLNNPR
notes: Yeast two-hybrid bait; also called rchd534 bait protein
B6: GAL4 transcriptional activation domain-rchd534 fusion (other, human, UniProt O43541-2 1-235, looked up, not shown: large carriers)
chain: MSRMGKPIETQKSPPPPYSRLSPRDEYKPLDLSDSTLSYTETEATNSLITAPGEFSDASMSPDATKPSHWCSVAYWEHRTRVGRLYAVYDQAVSIFYDLPQGSGFCLGQLNLEQRSESVRRTRSKIGFGILLSKEPDGVWAYNRGEHPIFVNSPTLDAPGGRALVVRKVPPGYSIKVFDFERSGLQHAPEPDAADGPYDPNSVRISFAKGWGPCYSRQFITSCPCWLEILLNNPR
notes: Yeast two-hybrid fish; also called rchd534 fish protein; Smad6
B7: GAL4 activation domain fusion to SV40 (other)
chain: PTYGTDEWEQWWNAFNEENLFCSEEMPSSDDEATADSQHSTPPKKKRKVEDPKDFPSELLSFLSHAVFSNRTLACFAIYTTKEKAALLYKKIMEKYSVTFISRHNSYNHNILFFLTPHRHRVSAINNYAQKLCTFSFLICKGVNKEYLMYSALTRDPFSVIEESLPGGLKEHDFNPEEAEETKQVSWKLVTEYAMETKCDDVLLLLGMYLEFQYSFEMCLKCIKKEQPSHYKYHEKHYANAAIFADSKNQKTICQQAVDTVLAKKRVDSLQLTREQMLTNRFNDLLDRMDIMFGSTGSADIEEWMAGVAWLHCLLPKMDSVVYDFLKCMVYNIPKKRYWLFKGPIDSGKTTLAAALLELCGGKALNVNLPLDRLNFELGVAIDQFLVVFEDVKGTGGESRDLPSGQGINNLDNLRDYLDGSVKVNLEKKHLNKRTQIFPPGIVTMNEYSVPKTLQARFVKQIDFRPKDYLKHCLERSEFLLEKRIIQSGIALLLMLIWYRPVAEFAQSIQSRIVEWKERLDKEFSLSVYQKMKFNVAMGIGVLDWLRNSDDDDEDSQENADKNEDGGEKNMEDSGHETGIDSQSQGSFQAPQSSQSVHDHNQPYHICRGFTCFKKPPTPPPEPET
notes: Two-hybrid control

The target in one assay is B5. Description: yeast two-hybrid mating assay (HIS3 and lacZ reporters). From the text:
(§1) Yeast expression plasmids encoding the GAL4 DNA-binding domain either alone or fused in frame to fchd540, rchd534, Drosophilia MAD, DPC4, or p53 were transformed into MATa two-hybrid screening strain HF7c. Yeast expression plasmnids encoding the GAL4 transcriptional activation domain alone and GAL4 activation domain fusions to rchd534 and SV40 were transformed into MATα two-hybrid screening strain Y1 87. p53 and SV40 interact with each other and should not interact with the experimental proteins. The HF7c transformants were propagated as stripes on semisolid synthetic complete medium lacking L-tryptophan and the Y187 transformants were grown as stripes on semisolid synthetic complete medium lacking L-leucine. Both sets of stripes were replica plated in the form of a grid onto a single rich YPAD plate and the haploid strains of opposite mating types were allowed to mate overnight at 30° C. The yeast strains on the mating plate were then replica plated to a synthetic complete plate lacking L-leucine and L-tryptophan to select for diploids and incubated at 30° C. overnight. Diploid strains on the synthetic complete plate lacking L-leucine and L-tryptophan were replica plated to a synthetic complete plate lacking L-leucine, L-tryptophan, and L-histidine to assay HIS3 expression and a paper filter on a synthetic complete plate lacking L-leucine and L-tryptophan. The next day the paper filter was subjected to the paper filter beta-galactosidase assay to measure expression of the lacZ reporter gene. HIS3 expression was scored after 3 days of growth at 30° C.
(§2) It was confirmed that these rchd534 cDNAs encode proteins that physically interact specifically with fchd540. Yeast expression plasmids encoding the GAL4 DNA-binding domain either alone or fused in frame to fchd540, rchd534, Drosophila MAD, DPC4, and p53 were transformed into MATa two-hybrid screening strain HF7c. Yeast expression plasmids encoding the GAL4 transcriptional activation domain (GAL4 AD) alone and GAL4 activation domain fusions to tchv03a, tchvR4A and SV40 were transformed into MATα two-hybrid screening strain Y1 87. p53 and SV40 interact with each other and should not interact with the experimental proteins. The HF7c transformants were propagated as stripes on semi-solid synthetic complete medium lacking […].
As for B1, the binding result is “no binding”. Take B2: the binding result is “no binding”.

Another assay addresses B7. The assay is described as above.
Source text: as §1, §2
As to B3, the binding result is recorded as “no binding”.

For B4, the binding result was “no binding”.

As for B5, the binding result is on record as “no binding”.

In a further assay the target is T1, GAL4 DNA-binding domain fusion to DPC4 (UniProt P04386 1-147; Q13485 1-552, limits assumed).
T1 construct: Yeast two-hybrid bait; also called DPC4 bait protein
Described as above.
Source text: as §1, §2
As to B6, the binding result was “no binding”. Take B7: the binding result is “no binding”. Same read-out and setting: as for B1, the entry is “no binding”; as for B2, “no binding”.

Another assay concerns the target B4. The description is as above.
Source text: as §1, §2
As to B6, the binding result was “no binding”. On to B1, for which the binding result is “no binding”. Still for that read-out and setting: as for B2, the entry is “no binding”.
